Experimental data taken from patent JP2018153172A (dated 2018).
Changes are numbered by the printed parent chain.

B1: ヒト化抗体A AH4−AL7 (antibody, V domains shown)
VH: QVQLVQSGAEVKKPGSSVKVSCKASGYTFTDYNMDWVRQAPGQGLEWMGDINSHSGGIIYNQKFKDRVTITADESTSTAYMELSSLRSEDTAVYYCARTYYVYGHFFDYWGQGTLVTVSS
VL: DIQMTQSPSTLSASIGDRVTITCNVSSSVTSMYWFQQRPGQAPKVLIYLTSNLASGVPSRFSGSGSGTDFTFTISSLQPEDIATYYCQQWSTNPLTFGGGTKVDIK
notes: VH on human IgG1 constant region (pFUSEss-CHIg-hG1), VL on human kappa constant region (pFUSE2ss-CLIg-hk); also called AH4-AL7
B2: ヒト化抗体A AH3−AL6 (antibody, V domains shown)
VH: B1 VH with S16A, M48I, R67K, V68A, I70M, A72V, E74T, S77N
VL: EIVLTQSPATLSLSPGERATLSCNVSSSVTSMYWYQQKPGQAPRLLIYLTSNLASGIPDRFSGSGSGTDFTLTISRLEPEDFAVYYCQQWSTNPLTFGQGTKVEIK
notes: VH on human IgG1 constant region (pFUSEss-CHIg-hG1), VL on human kappa constant region (pFUSE2ss-CLIg-hk); also called AH3-AL6
B3: ヒト化抗体A AH5−AL1 (antibody, V domains shown)
VH: B1 VH with Q1E, A9P, V11L, S16A, R38K, A40R, M48I, S84T, R87T, T117S
VL: DIQMTQSPSSLSASVGDRVTITCNVSSSVTSMYWYQQKPGKAPKLLIYLTSNLASGVPARFSGSGSGTEFTLTISSLQPDDFATYYCQQWSTNPLTFGAGTKLDLK
notes: VH on human IgG1 constant region (pFUSEss-CHIg-hG1), VL on human kappa constant region (pFUSE2ss-CLIg-hk); also called AH5-AL1
B4: ヒト化抗体A AH3−AL1 (antibody, V domains shown)
VH: B1 VH with S16A, M48I, R67K, V68A, I70M, A72V, E74T, S77N
VL: B3 VL
notes: VH on human IgG1 constant region (pFUSEss-CHIg-hG1), VL on human kappa constant region (pFUSE2ss-CLIg-hk); also called AH3-AL1
B5: ヒト化抗体A AH2−AL7 (antibody, V domains shown)
VH: QVQLQQPGAELVQPGTSVRLSCKASGYTFTDYNMDWVKQRPGQGLEWIGDINSHSGGIIYNQKFKDKATLTVDKSSSTAYMQLSSLTSEDSAVYYCTRTYYVYGHFFDYWGQGTLVTVSA
VL: B1 VL
notes: VH on human IgG1 constant region (pFUSEss-CHIg-hG1), VL on human kappa constant region (pFUSE2ss-CLIg-hk); also called AH2-AL7
B6: ヒト化抗体A AH3−AL2 (antibody, V domains shown)
VH: B1 VH with S16A, M48I, R67K, V68A, I70M, A72V, E74T, S77N
VL: DIQMTQSPSSLSASVGDRVTITCNVSSSVTSMYWYQQKQGKSPQLLVYLTSNLASGVPSRFSGSGSGTQFSLKINNLQPEDFGSYYCQQWSTNPLTFGAGTKLDLK
notes: VH on human IgG1 constant region (pFUSEss-CHIg-hG1), VL on human kappa constant region (pFUSE2ss-CLIg-hk); also called AH3-AL2
B7: ヒト化抗体A AH8−AL7 (antibody, V domains shown)
VH: B1 VH with Q1E, S16A, Q43K, M48V, E74R, A79V, S85G, Q112K
VL: B1 VL
notes: VH on human IgG1 constant region (pFUSEss-CHIg-hG1), VL on human kappa constant region (pFUSE2ss-CLIg-hk); also called AH8-AL7
B8: ヒト化抗体A AH1−AL7 (antibody, V domains shown)
VH: B1 VH with Q1E, M48I, R67K, V68A, S77N, L115T, V116L
VL: B1 VL
notes: VH on human IgG1 constant region (pFUSEss-CHIg-hG1), VL on human kappa constant region (pFUSE2ss-CLIg-hk); also called AH1-AL7
B9: ヒト化抗体A AH6−AL7 (antibody, V domains shown)
VH: B1 VH with S16A, M48I, S84T, R87T, L115T
VL: B1 VL
notes: VH on human IgG1 constant region (pFUSEss-CHIg-hG1), VL on human kappa constant region (pFUSE2ss-CLIg-hk); also called AH6-AL7
B10: ヒト化抗体A AH5−AL3 (antibody, V domains shown)
VH: B1 VH with Q1E, A9P, V11L, S16A, R38K, A40R, M48I, S84T, R87T, T117S
VL: B3 VL with S10T, A99Q, L103V, D104E, L105V
notes: VH on human IgG1 constant region (pFUSEss-CHIg-hG1), VL on human kappa constant region (pFUSE2ss-CLIg-hk); also called AH5-AL3
B11: ヒト化抗体A AH3−AL3 (antibody, V domains shown)
VH: B1 VH with S16A, M48I, R67K, V68A, I70M, A72V, E74T, S77N
VL: B3 VL with S10T, A99Q, L103V, D104E, L105V
notes: VH on human IgG1 constant region (pFUSEss-CHIg-hG1), VL on human kappa constant region (pFUSE2ss-CLIg-hk); also called AH3-AL3
B12: ヒト化抗体A AH3−AL4 (antibody, V domains shown)
VH: B1 VH with S16A, M48I, R67K, V68A, I70M, A72V, E74T, S77N
VL: DIQMTQSPSSLSASVGDRVTITCNVSSSVTSMYWYQQKQGKSPQLLVYLTSNLASGVPSRFSGSGSGTDFTLTISSLQPEDFATYYCQQWSTNPLTFGQGTKVEIK
notes: VH on human IgG1 constant region (pFUSEss-CHIg-hG1), VL on human kappa constant region (pFUSE2ss-CLIg-hk); also called AH3-AL4
B13: ヒト化抗体A AH5−AL5 (antibody, V domains shown)
VH: B1 VH with Q1E, A9P, V11L, S16A, R38K, A40R, M48I, S84T, R87T, T117S
VL: B3 VL with S9A, D17E, R18T
notes: VH on human IgG1 constant region (pFUSEss-CHIg-hG1), VL on human kappa constant region (pFUSE2ss-CLIg-hk); also called AH5-AL5
B14: ヒト化抗体A AH3−AL5 (antibody, V domains shown)
VH: B1 VH with S16A, M48I, R67K, V68A, I70M, A72V, E74T, S77N
VL: B3 VL with S9A, D17E, R18T
notes: VH on human IgG1 constant region (pFUSEss-CHIg-hG1), VL on human kappa constant region (pFUSE2ss-CLIg-hk); also called AH3-AL5
B15: ヒト化抗体A AH5−AL7 (antibody, V domains shown)
VH: B1 VH with Q1E, A9P, V11L, S16A, R38K, A40R, M48I, S84T, R87T, T117S
VL: B1 VL
notes: VH on human IgG1 constant region (pFUSEss-CHIg-hG1), VL on human kappa constant region (pFUSE2ss-CLIg-hk); also called AH5-AL7
B16: ヒト化抗体A AH8−AL1 (antibody, V domains shown)
VH: B1 VH with Q1E, S16A, Q43K, M48V, E74R, A79V, S85G, Q112K
VL: B3 VL
notes: VH on human IgG1 constant region (pFUSEss-CHIg-hG1), VL on human kappa constant region (pFUSE2ss-CLIg-hk); also called AH8-AL1
B17: ヒト化抗体A AH5−AL4 (antibody, V domains shown)
VH: B1 VH with Q1E, A9P, V11L, S16A, R38K, A40R, M48I, S84T, R87T, T117S
VL: B12 VL
notes: VH on human IgG1 constant region (pFUSEss-CHIg-hG1), VL on human kappa constant region (pFUSE2ss-CLIg-hk); also called AH5-AL4
B18: ヒト化抗体A AH3−AL7 (antibody, V domains shown)
VH: B1 VH with S16A, M48I, R67K, V68A, I70M, A72V, E74T, S77N
VL: B1 VL
notes: VH on human IgG1 constant region (pFUSEss-CHIg-hG1), VL on human kappa constant region (pFUSE2ss-CLIg-hk); also called AH3-AL7
B19: ヒト化抗体A AH7−AL1 (antibody, V domains shown)
VH: EVQLVQSGAEVKKPGATVKISCKASGYTFTDYNMDWVRQAPGQGLEWIGDINSHSGGIIYNQKFKDWVTMTRDTSINTAYMELRLRSDDTAVYYCARTYYVYGHFFDYWGQGTLVTVSA
VL: B3 VL
notes: VH on human IgG1 constant region (pFUSEss-CHIg-hG1), VL on human kappa constant region (pFUSE2ss-CLIg-hk); also called AH7-AL1
B20: ヒト化抗体A AH2−AL2 (antibody, V domains shown)
VH: B5 VH
VL: B6 VL
notes: VH on human IgG1 constant region (pFUSEss-CHIg-hG1), VL on human kappa constant region (pFUSE2ss-CLIg-hk); also called AH2-AL2
B21: ヒト化抗体A AH2−AL8 (antibody, V domains shown)
VH: B5 VH
VL: ELVLTQSPGTLSLSAGERATLSCNVSSSVTSMYWYQQKPGKAPKLLIYLTSNLASGAPSRFSGSGSGTDFTLTISSLQPDDFATYYCQQWSTNPLTFGGGTKLEIK
notes: VH on human IgG1 constant region (pFUSEss-CHIg-hG1), VL on human kappa constant region (pFUSE2ss-CLIg-hk); also called AH2-AL8
B22: ヒト化抗体A AH2−AL6 (antibody, V domains shown)
VH: B5 VH
VL: B2 VL
notes: VH on human IgG1 constant region (pFUSEss-CHIg-hG1), VL on human kappa constant region (pFUSE2ss-CLIg-hk); also called AH2-AL6

What follows are binders tested against T1, 可溶性ヒトgp130受容体 (soluble human gp130 receptor, extracellular region of SEQ ID NO 1 with six histidines) (human, UniProt P40189 23-619) (assay: ELISA, immobilised soluble human gp130, COS1 supernatant, anti-human antibody-HRP).
T1 construct: Secreted from CHO DG44 cells and purified on HisTrap; no cleavage site is stated; also called 可溶性ヒトgp130受容体タンパク質; ヒト可溶性gp130受容体
T1 sequence: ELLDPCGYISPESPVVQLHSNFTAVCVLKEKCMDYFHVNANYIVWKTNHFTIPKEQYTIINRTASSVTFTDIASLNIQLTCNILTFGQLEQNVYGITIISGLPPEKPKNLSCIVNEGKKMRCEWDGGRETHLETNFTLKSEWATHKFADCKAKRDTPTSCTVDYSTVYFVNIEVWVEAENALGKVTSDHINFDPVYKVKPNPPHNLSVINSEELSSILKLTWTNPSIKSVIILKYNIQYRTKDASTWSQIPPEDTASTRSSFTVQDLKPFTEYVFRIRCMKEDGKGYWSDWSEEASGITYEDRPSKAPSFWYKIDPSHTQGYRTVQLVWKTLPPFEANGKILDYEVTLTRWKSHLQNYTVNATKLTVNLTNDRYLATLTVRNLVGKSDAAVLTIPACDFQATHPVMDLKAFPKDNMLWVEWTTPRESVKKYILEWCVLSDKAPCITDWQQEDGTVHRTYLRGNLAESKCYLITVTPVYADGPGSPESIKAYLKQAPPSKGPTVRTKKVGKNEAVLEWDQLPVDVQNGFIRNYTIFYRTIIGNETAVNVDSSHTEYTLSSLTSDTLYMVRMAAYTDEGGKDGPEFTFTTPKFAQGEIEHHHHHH

Binding result, binds:
B1, B2, B3, B4, B5, B6, B7, B8, B9, B10, B11, B12, B13, B14, B15, B16, B17, B18, B19, B20, B21, B22
